± gives the uncertainty stated by the source.
Test: self-splicing fitness, log relative to wild type (ln ratio); higher = more splicing; Tetrahymena group I intron in knt gene, E. coli kanamycin selection, DiMSum; sequences stand for … in CUCUCU…GGAGGGAAAAGUUAUCAGGCAUGCACCUGGUAGCUAGUCUUUAAACCAAUAGAUUGCAUCGGUUUAAAAGGCAAGACCGUCAAAUUGCGGGAAAGGGGUCAACAGCCGUUCAGUACCAAGUCUCAGGGGAAACUUUGAGAUGGCCUUGCAAAGGGUAUGGUAAUAAGCUGACGGACAUGGUCCUAACCACGCAGCCAAGUCCUAAGUCAACAGAUCUUCUGUUGAUAUGGAUGCAGUUCACAGACUAAAUGUCGGUCGGGGAAGAUGUAUUCUUCUCAUAAGAUAUAGUCGGACCUCUCCUUAAUGGGAGCUAGCGGAUGAAGUGAUGCAACACUGGAGCCGCUGGGAACUAAUUUGUAUGCGAAAGUAUAUUGAUUAGUUUUGGAGUACUCGUGGUCG
In short: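 Colonies from six replicate transformations of E. coli BL21(DE3) were pooled and amplicon-sequenced on an Illumina HiSeq 2500. The library placed an intron with all eight P1ex-region nucleotides randomised inside the knt kanamycin-resistance gene on pET-22b(+), and cells grew overnight at 37°C or 30°C on LB agar with or without 25 μg/mL kanamycin (plus 100 μg/mL carbenicillin, 50 μM IPTG, 0.2% rhamnose). Fitness is the DiMSum error-weighted combination of wild-type-normalised replicate fold changes, kanamycin versus none.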

Row | Sequence | self-splicing fitness (ln) (30 °C) | self-splicing fitness (ln) (37 °C)
1 | UUCCAGCAAUAUUACGAUUC | -1.5 ± 0.17 | -2.04 ± 0.27
2 | CGCAAGCAAUAUUACGCAAC | -3.19 ± 0.36 | -3.11 ± 0.37
3 | CGCGAGCAAUAUUACGAGUG | -3.46 ± 0.31 | -1.78 ± 0.2
4 | UCCUAGCAAUAUUACGACAC | -0.225 ± 0.29 | –
5 | CCCUAGCAAUAUUACGCGAU | -3.74 ± 0.18 | -2.77 ± 0.2
6 | CGCUAGCAAUAUUACGUAGU | -3.48 ± 0.13 | -1.34 ± 0.12
7 | AUAUAGCAAUAUUACGAAGU | -3.37 ± 0.3 | -1.63 ± 0.36
8 | AUAAAGCAAUAUUACGCCGG | -0.516 ± 0.13 | -0.807 ± 0.17
9 | GGACAGCAAUAUUACGGGCC | – | -1.52 ± 0.29
10 | AAUCAGCAAUAUUACGAGCA | -0.936 ± 0.14 | -0.0653 ± 0.12
11 | UCACAGCAAUAUUACGUGAA | -2.36 ± 0.1 | -1.4 ± 0.1
12 | GUCCAGCAAUAUUACGAAUG | -2.65 ± 0.17 | -1.31 ± 0.15
13 | GAGCAGCAAUAUUACGCUCA | -2.14 ± 0.2 | -1.91 ± 0.16
14 | AAACAGCAAUAUUACGUGAU | -2.18 ± 0.053 | -1.13 ± 0.072
15 | UCCUAGCAAUAUUACGUCAC | -1.97 ± 0.2 | -2.6 ± 0.27
16 | GACAAGCAAUAUUACGAGGG | -4.27 ± 0.18 | -2.81 ± 0.15
17 | GGGAAGCAAUAUUACGUGAC | -1.99 ± 0.18 | 0.336 ± 0.21
18 | CGAAAGCAAUAUUACGAGAC | – | -2.62 ± 0.24
19 | GCCAAGCAAUAUUACGAUCA | -3.6 ± 0.21 | -1.2 ± 0.11
20 | UGCCAGCAAUAUUACGGGCC | -3.23 ± 0.21 | -1.73 ± 0.2
21 | UACGAGCAAUAUUACGCACA | -3.08 ± 0.26 | -1.29 ± 0.21
22 | UCACAGCAAUAUUACGAUAA | -1.65 ± 0.066 | -0.733 ± 0.074
23 | GAAAAGCAAUAUUACGCAUC | -3.17 ± 0.17 | -2.78 ± 0.18
24 | UUACAGCAAUAUUACGCAGG | -1.79 ± 0.14 | -1.44 ± 0.14
25 | CCUCAGCAAUAUUACGGGUC | -2.5 ± 0.27 | -2.56 ± 0.36

Row | Sequence | self-splicing fitness (ln) (30 °C) | self-splicing fitness (ln) (37 °C)
26 | AUCUAGCAAUAUUACGUCCA | -0.699 ± 0.14 | 0.279 ± 0.12
27 | GACUAGCAAUAUUACGGUGA | -1.07 ± 0.11 | -0.694 ± 0.097
28 | CCCCAGCAAUAUUACGCGUG | -4.14 ± 0.18 | -2.76 ± 0.15
29 | UGGCAGCAAUAUUACGCGCC | – | -2.9 ± 0.19
30 | AAGAAGCAAUAUUACGGGUU | -1.57 ± 0.15 | -1.41 ± 0.14
31 | UCGUAGCAAUAUUACGUACG | -3.07 ± 0.24 | -1.96 ± 0.19
32 | AUGCAGCAAUAUUACGCGGC | -3.79 ± 0.47 | –
33 | AUAUAGCAAUAUUACGGACA | -1.48 ± 0.22 | -1.2 ± 0.23
34 | UUGCAGCAAUAUUACGUGGA | -2.52 ± 0.18 | -1.27 ± 0.13
35 | GGCAAGCAAUAUUACGUCAU | -1.32 ± 0.072 | -0.111 ± 0.083
36 | CACAAGCAAUAUUACGUUUG | -2.89 ± 0.078 | -2.14 ± 0.089
37 | CCAAAGCAAUAUUACGUACC | -3.76 ± 0.37 | -2.19 ± 0.32
38 | CCACAGCAAUAUUACGUGAU | -3.51 ± 0.18 | -1.98 ± 0.12
39 | AUAGAGCAAUAUUACGAUUU | -0.251 ± 0.081 | 0.0148 ± 0.1
40 | CGAGAGCAAUAUUACGGUUG | -2.88 ± 0.14 | -1.21 ± 0.14
41 | UCGCAGCAAUAUUACGAACU | -3.13 ± 0.19 | -1.69 ± 0.17
42 | CAGCAGCAAUAUUACGAUAA | -3.08 ± 0.14 | -2.24 ± 0.13
43 | GCGAAGCAAUAUUACGCAAA | -3.14 ± 0.22 | -2.07 ± 0.17
44 | GGGUAGCAAUAUUACGGAAG | -3.46 ± 0.35 | -1.87 ± 0.45
45 | UAGGAGCAAUAUUACGAGAA | -3.23 ± 0.44 | -2.68 ± 0.42
46 | ACGGAGCAAUAUUACGGAAA | – | -2.15 ± 0.24
47 | AGCAAGCAAUAUUACGGGGC | -3.92 ± 0.29 | -2.89 ± 0.3
48 | GAACAGCAAUAUUACGGAGG | -3.02 ± 0.14 | -2.54 ± 0.2
49 | GAAGAGCAAUAUUACGCAAU | -3.87 ± 0.2 | -1.65 ± 0.13
50 | UUAAAGCAAUAUUACGUGAG | -0.984 ± 0.063 | -0.201 ± 0.1

Row | Sequence | self-splicing fitness (ln) (30 °C) | self-splicing fitness (ln) (37 °C)
51 | UGAAAGCAAUAUUACGAGUU | -3.31 ± 0.15 | -0.915 ± 0.095
52 | AGACAGCAAUAUUACGACCU | 0.0744 ± 0.084 | -0.545 ± 0.093
53 | ACCCAGCAAUAUUACGGGGA | -1.02 ± 0.053 | -0.524 ± 0.065
54 | CUUUAGCAAUAUUACGAUAA | -2.76 ± 0.15 | -2.64 ± 0.28
55 | AAUGAGCAAUAUUACGCUCG | -2.31 ± 0.25 | -0.585 ± 0.18
56 | CUUCAGCAAUAUUACGUGAU | -3.65 ± 0.12 | -2.55 ± 0.12
57 | UUACAGCAAUAUUACGAACC | -1.61 ± 0.4 | –
58 | GGCAAGCAAUAUUACGAAUU | -0.859 ± 0.074 | 0.0425 ± 0.081
59 | AUCCAGCAAUAUUACGCCGG | -3.51 ± 0.24 | -2.36 ± 0.41
60 | CGGGAGCAAUAUUACGCGAA | -2.47 ± 0.25 | -1.9 ± 0.23
61 | ACAUAGCAAUAUUACGGCCC | -1.29 ± 0.14 | -0.169 ± 0.23
62 | CGUGAGCAAUAUUACGGUAU | -3.54 ± 0.25 | -3.1 ± 0.34
63 | GAUAAGCAAUAUUACGCAUC | -3.06 ± 0.23 | -1.21 ± 0.35
64 | CGGGAGCAAUAUUACGGACG | -2 ± 0.14 | -2.14 ± 0.23
65 | GAAUAGCAAUAUUACGGCGA | -1.11 ± 0.11 | -0.3 ± 0.11
66 | UUGAAGCAAUAUUACGAUAC | -2.62 ± 0.2 | -2.62 ± 0.26
67 | CGACAGCAAUAUUACGCUAC | – | -1.12 ± 0.28
68 | UGCAAGCAAUAUUACGCAGA | -1.92 ± 0.16 | -1.75 ± 0.15
69 | GGGCAGCAAUAUUACGGUAA | -1.69 ± 0.27 | -0.663 ± 0.19
70 | AUGGAGCAAUAUUACGUUGC | -3.34 ± 0.4 | -2.22 ± 0.42
71 | AAGUAGCAAUAUUACGAUUU | 0.429 ± 0.06 | 0.104 ± 0.075
72 | UAUGAGCAAUAUUACGUACG | -2.35 ± 0.19 | -1.34 ± 0.21
73 | GCCAAGCAAUAUUACGCCCC | -1.02 ± 0.21 | -0.946 ± 0.22
74 | UAAUAGCAAUAUUACGGGUC | -3.33 ± 0.3 | -1.58 ± 0.28
75 | GUUUAGCAAUAUUACGAACA | -2.02 ± 0.39 | -1.24 ± 0.26

Row | Sequence | self-splicing fitness (ln) (30 °C) | self-splicing fitness (ln) (37 °C)
76 | UUAGAGCAAUAUUACGAGGG | – | -2.64 ± 0.44
77 | AUAGAGCAAUAUUACGCGCU | -2.64 ± 0.29 | -0.717 ± 0.24
78 | AAGCAGCAAUAUUACGCACC | -0.735 ± 0.085 | 0.0945 ± 0.09
79 | AGUGAGCAAUAUUACGGCAG | -3.28 ± 0.28 | -1.43 ± 0.24
80 | ACAAAGCAAUAUUACGGCCA | -1.13 ± 0.14 | -0.00489 ± 0.11
81 | AGUCAGCAAUAUUACGUUUC | -3.63 ± 0.15 | -1.34 ± 0.11
82 | CGUCAGCAAUAUUACGGAGC | -3.85 ± 0.42 | -1.95 ± 0.26
83 | UGCAAGCAAUAUUACGGCAC | -3.59 ± 0.4 | -3.28 ± 0.33
84 | CUCGAGCAAUAUUACGCGCC | -2.53 ± 0.19 | -2.12 ± 0.37
85 | UAGAAGCAAUAUUACGUACU | -1.22 ± 0.1 | -0.355 ± 0.14
86 | CCUCAGCAAUAUUACGUCGU | -3.24 ± 0.15 | -2.82 ± 0.24
87 | UUUGAGCAAUAUUACGCGCG | -1.85 ± 0.13 | -0.956 ± 0.19
88 | GGUAAGCAAUAUUACGGAAC | -1.55 ± 0.17 | -0.543 ± 0.21
89 | AUUUAGCAAUAUUACGAUUA | -1.4 ± 0.2 | -0.561 ± 0.16
90 | CGAUAGCAAUAUUACGUUGU | -3.45 ± 0.15 | -2.61 ± 0.21
91 | GAUAAGCAAUAUUACGAACC | -0.954 ± 0.1 | -0.647 ± 0.13
92 | CAAAAGCAAUAUUACGGUUA | -1.72 ± 0.1 | -0.514 ± 0.083
93 | CGACAGCAAUAUUACGGCCA | -1.16 ± 0.15 | -0.534 ± 0.18
94 | ACCAAGCAAUAUUACGGUCA | -1.36 ± 0.082 | -0.9 ± 0.086
95 | GGCUAGCAAUAUUACGUUUA | -0.381 ± 0.15 | -0.882 ± 0.16
96 | GUGGAGCAAUAUUACGUUCG | -1.45 ± 0.2 | -0.499 ± 0.25
97 | UAUAAGCAAUAUUACGGCGC | -1.25 ± 0.11 | -1.35 ± 0.14
98 | ACCGAGCAAUAUUACGUCUG | -2.37 ± 0.095 | -2.28 ± 0.14
